Experimental data: patent US20150344570A1 (published 2015)

B1: GpH7-A5/GpH7-B3 variant S267_01G/GpL16-k0 (antibody, human IgG1, kappa)
heavy 1: not shown
heavy 2: not shown
light: DIVMTQSPLSLPVTPGEPASISCQASESLVHSNRNTYLHWYLQKPGQSPQLLIYKVSNRFSGVPDRFSGSGSGTDFTLKISRVEAEDVGVYYCSQNTHVPPTFGQGTKVEIERTVAAPSVFIFPPSDEQLKSGTASVVCLLNNFYPREAKVQWKVDNALQSGNSQESVTEQDSKDSTYSLSSTLTLSKADYEKHKVYACEVTHQGLSSPVTKSFNRGEC
notes: He Ab; alteration in one H chain only; also called He Ab
B2: GpH7-A5/GpH7-B3 variant H268_18N/GpL16-k0 (antibody, human IgG1, kappa)
heavy 1: not shown
heavy 2: not shown
light: B1 light
notes: as for B1
B3: GpH7-A5/GpH7-B3 variant V266_19Q/GpL16-k0 (antibody, human IgG1, kappa)
heavy 1: not shown
heavy 2: not shown
light: B1 light
notes: mutation in the GpH7-B3 chain only; also called He Ab
B4: GpH7-A5/GpH7-B3 variant S267_03V/GpL16-k0 (antibody, human IgG1, kappa)
heavy 1: not shown
heavy 2: not shown
light: B1 light
notes: as for B3
B5: GpH7-A5/GpH7-B3 variant V266_05P/GpL16-k0 (antibody, human IgG1, kappa)
heavy 1: not shown
heavy 2: not shown
light: B1 light
notes: as for B3
B6: GpH7-A5/GpH7-B3 variant V266_02A/GpL16-k0 (antibody, human IgG1, kappa)
heavy 1: not shown
heavy 2: not shown
light: B1 light
notes: as for B3
B7: GpH7-A5/GpH7-B3 variant P271_10E/GpL16-k0 (antibody, human IgG1, kappa)
heavy 1: not shown
heavy 2: not shown
light: B1 light
notes: as for B1
B8: GpH7-A5/GpH7-B3 variant S267_02A/GpL16-k0 (antibody, human IgG1, kappa)
heavy 1: not shown
heavy 2: not shown
light: B1 light
notes: as for B3
B9: GpH7-A5/GpH7-B3 variant V266_08L/GpL16-k0 (antibody, human IgG1, kappa)
heavy 1: not shown
heavy 2: not shown
light: B1 light
notes: as for B3
B10: GpH7-A5/GpH7-B3 variant H268_13S/GpL16-k0 (antibody, human IgG1, kappa)
heavy 1: not shown
heavy 2: not shown
light: B1 light
notes: as for B1
B11: GpH7-A5/GpH7-B3 variant V266_18N/GpL16-k0 (antibody, human IgG1, kappa)
heavy 1: not shown
heavy 2: not shown
light: B1 light
notes: as for B3
B12: GpH7-A5/GpH7-B3 variant P271_09D/GpL16-k0 (antibody, human IgG1, kappa)
heavy 1: not shown
heavy 2: not shown
light: B1 light
notes: as for B1
B13: GpH7-A5/GpH7-B3 variant H268_01G/GpL16-k0 (antibody, human IgG1, kappa)
heavy 1: not shown
heavy 2: not shown
light: B1 light
notes: as for B1
B14: GpH7-A5/GpH7-B3 variant V266_13S/GpL16-k0 (antibody, human IgG1, kappa)
heavy 1: not shown
heavy 2: not shown
light: B1 light
notes: as for B3
B15: GpH7-A5/GpH7-B3 variant H268_02A/GpL16-k0 (antibody, human IgG1, kappa)
heavy 1: not shown
heavy 2: not shown
light: B1 light
notes: as for B1
B16: GpH7-A5/GpH7-B3 variant D265_20W/GpL16-k0 (antibody, human IgG1, kappa)
heavy 1: not shown
heavy 2: not shown
light: B1 light
notes: as for B3
B17: GpH7-A5/GpH7-B3 variant S267_05P/GpL16-k0 (antibody, human IgG1, kappa)
heavy 1: not shown
heavy 2: not shown
light: B1 light
notes: as for B3
B18: GpH7-A5/GpH7-B3 variant V266_10E/GpL16-k0 (antibody, human IgG1, kappa)
heavy 1: not shown
heavy 2: not shown
light: B1 light
notes: as for B3
B19: GpH7-A5/GpH7-B3 variant S267_01G/GpL16-k0 (antibody, human IgG1, kappa)
heavy 1: not shown
heavy 2: not shown
light: B1 light
notes: as for B3

How the values were obtained:
[1] = biological target: T1, FcγRIIa H (FcgRIIa type H, His at position 131), extracellular domain with C-terminal His tag (human, UniProt P12318 34-217); experiment: SPR; He/Con_2aH divided by He/Con_2b (FcγRIIa H binding over FcγRIIb binding)
T1 construct: extracellular domain; also called 2aH; FcgRIIa H; not shown: His tag at the C terminus
T1 sequence (looked up): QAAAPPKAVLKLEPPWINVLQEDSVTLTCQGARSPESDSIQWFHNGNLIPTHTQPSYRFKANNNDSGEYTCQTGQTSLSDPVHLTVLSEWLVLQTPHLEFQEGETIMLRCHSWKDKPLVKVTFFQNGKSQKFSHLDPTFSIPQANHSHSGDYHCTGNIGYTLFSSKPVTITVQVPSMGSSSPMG

[2] = biological target: T2, FcγRIIb, extracellular domain with C-terminal His tag (human, UniProt P31994 43-217); experiment: SPR (Biacore), relative binding, GpH7-A5/GpH7-B3/GpL16-k0 = 100
T2 construct: extracellular domain; also called 2b; FcgRIIb; not shown: His tag at the C terminus
T2 sequence (looked up): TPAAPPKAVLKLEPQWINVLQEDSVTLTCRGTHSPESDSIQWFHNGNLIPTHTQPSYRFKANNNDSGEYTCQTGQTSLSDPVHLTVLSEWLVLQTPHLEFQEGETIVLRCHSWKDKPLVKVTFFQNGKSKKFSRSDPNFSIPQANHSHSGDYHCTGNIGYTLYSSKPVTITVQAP

[3] = biological target: T1, FcγRIIa H (FcgRIIa type H, His at …); experiment: as above
[4] = biological target: T3, FcγRIIIa (human, UniProt P08637 17-208); experiment: SPR; He/Con_3a divided by He/Con_2b (FcγRIIIa against FcγRIIb)
T3 construct: extracellular domain; also called FcgRIIIa; 3a
T3 sequence (P08637 17-208): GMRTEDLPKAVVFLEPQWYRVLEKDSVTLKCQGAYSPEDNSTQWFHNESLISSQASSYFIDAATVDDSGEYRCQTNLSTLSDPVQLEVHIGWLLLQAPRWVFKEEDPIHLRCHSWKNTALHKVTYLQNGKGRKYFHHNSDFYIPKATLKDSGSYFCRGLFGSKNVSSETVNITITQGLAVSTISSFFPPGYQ

[5] = biological target: T3, FcγRIIIa; experiment: SPR (Biacore), relative binding
[6] = biological target: T4, FcγRIIb (human, UniProt P31994 43-217); experiment: SPR (Biacore), relative binding
T4 construct: extracellular domain; also called FcgRIIb; 2b
T4 sequence (looked up): T2 sequence (looked up)

Binder | He_2aH/2b (IIaH/IIb) [1] [ratio] | He/Con_2b [2] | He/Con_2aH [3] | He_3a/2b (IIIa/IIb) [4] [ratio] | He/Con_3a [5] | He/Con_2b [6]
B1 | 0.68 | 105 % of control | 71.3 % of control | – | – | –
B2 | 0.72 | 156 % of control | 112 % of control | – | – | –
B3 | – | – | – | 0.39 | 34.7 % of GpH7-A5/GpH7-B3/GpL16-k0 | 89.2 % of GpH7-A5/GpH7-B3/GpL16-k0
B4 | – | – | – | 0.16 | 30.8 % of GpH7-A5/GpH7-B3/GpL16-k0 | 192 % of GpH7-A5/GpH7-B3/GpL16-k0
B5 | – | – | – | -1.98 | -0.7 % of GpH7-A5/GpH7-B3/GpL16-k0 | 0.4 % of GpH7-A5/GpH7-B3/GpL16-k0
B6 | – | – | – | 0.71 | 57.4 % of GpH7-A5/GpH7-B3/GpL16-k0 | 81 % of GpH7-A5/GpH7-B3/GpL16-k0
B7 | 0.58 | 109 % of control | 63.1 % of control | – | – | –
B8 | – | – | – | 0.62 | 150 % of GpH7-A5/GpH7-B3/GpL16-k0 | 243 % of GpH7-A5/GpH7-B3/GpL16-k0
B9 | – | – | – | 0.5 | 118 % of GpH7-A5/GpH7-B3/GpL16-k0 | 236 % of GpH7-A5/GpH7-B3/GpL16-k0
B10 | 0.7 | 160 % of control | 112 % of control | – | – | –
B11 | – | – | – | 0.44 | 30.4 % of GpH7-A5/GpH7-B3/GpL16-k0 | 69.7 % of GpH7-A5/GpH7-B3/GpL16-k0
B12 | 0.58 | 120 % of control | 70.1 % of control | – | – | –
B13 | 0.69 | 144 % of control | 99.2 % of control | – | – | –
B14 | – | – | – | 0.52 | 28.1 % of GpH7-A5/GpH7-B3/GpL16-k0 | 54.4 % of GpH7-A5/GpH7-B3/GpL16-k0
B15 | 0.68 | 167 % of control | 114 % of control | – | – | –
B16 | – | – | – | -0.48 | -0.5 % of GpH7-A5/GpH7-B3/GpL16-k0 | 1.1 % of GpH7-A5/GpH7-B3/GpL16-k0
B17 | – | – | – | 0.5 | 15.7 % of GpH7-A5/GpH7-B3/GpL16-k0 | 31.5 % of GpH7-A5/GpH7-B3/GpL16-k0
B18 | – | – | – | 0.27 | 4.1 % of GpH7-A5/GpH7-B3/GpL16-k0 | 15.2 % of GpH7-A5/GpH7-B3/GpL16-k0
B19 | – | – | – | 0.51 | 53.8 % of GpH7-A5/GpH7-B3/GpL16-k0 | 105 % of GpH7-A5/GpH7-B3/GpL16-k0
